Assay results from the supplement of paper PMC9233669.
Fewer inactive variants are shown than the library holds.

Experiments:
[1] = system: biotinyl-Met-oxazolone; assay: self-aminoacylation, catalytic enhancement (BMO) (fold over background); higher = more active; k-Seq, kA / k0A0; sequences stand for … in GGGAAUGGAUCCACAUCUACGAAUUC…UUCACUGCAGACUUGACGAAGCUG
Summary of the method: (§1)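 Catalytic enhancement equals the median kA over the uncatalyzed rate, the latter read from the low-activity peak of a bimodal Gaussian fit. Values of kA came from fitting each sequence's fraction reacted to a pseudo-first-order model, with 1000 bootstraps. Reacted RNA was captured with streptavidin and quantified by triplicate qPCR and Illumina sequencing after 90 minutes at room temperature with 2–1250 μM biotinyl-aminoacyl-oxazolone and 0.43 μM mutagenized RNA pools bearing a 21-nt variable region.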

[2] = system: biotinyl-Trp-oxazolone; assay: self-aminoacylation, catalytic enhancement (BWO) (fold over background); higher = more active; k-Seq, kA / k0A0; sequences stand for … in GGGAAUGGAUCCACAUCUACGAAUUC…UUCACUGCAGACUUGACGAAGCUG
Summary of the method: as §1

[3] = system: biotinyl-Ile-oxazolone; assay: self-aminoacylation, catalytic enhancement (BIO) (fold over background); higher = more active; k-Seq, kA / k0A0; sequences stand for … in GGGAAUGGAUCCACAUCUACGAAUUC…UUCACUGCAGACUUGACGAAGCUG
Summary of the method: as §1

[4] = system: biotinyl-Phe-oxazolone; assay: self-aminoacylation, catalytic enhancement (BFO) (fold over background); higher = more active; k-Seq, kA / k0A0; sequences stand for … in GGGAAUGGAUCCACAUCUACGAAUUC…UUCACUGCAGACUUGACGAAGCUG
Summary of the method: as §1

[5] = system: biotinyl-Val-oxazolone; assay: self-aminoacylation, catalytic enhancement (BVO) (fold over background); higher = more active; k-Seq, kA / k0A0; sequences stand for … in GGGAAUGGAUCCACAUCUACGAAUUC…UUCACUGCAGACUUGACGAAGCUG
Summary of the method: as §1

[6] = system: biotinyl-Leu-oxazolone; assay: self-aminoacylation, catalytic enhancement (BLO) (fold over background); higher = more active; k-Seq, kA / k0A0; sequences stand for … in GGGAAUGGAUCCACAUCUACGAAUUC…UUCACUGCAGACUUGACGAAGCUG
Summary of the method: as §1

Sequence	self-aminoacylation [1]	self-aminoacylation [2]	self-aminoacylation [3]	self-aminoacylation [4]	self-aminoacylation [5]	self-aminoacylation [6]
AUUCUCCUGGGUCAUCGGGUG [Fam2.2 aminoacylation ribozyme variant]	9.61	9.42	6.05	73.6	7.53	10.8
AUUCUCCUUGGUCAUCGGGUG [Fam2.2 aminoacylation ribozyme variant]	9.71	9.53	6.85	75	7.53	13.8
AUUCUGCUAGGUCAUCGGGUG [Fam2.2 aminoacylation ribozyme variant]	9.46	9.84	5.96	72.1	6.13	12
AUUGAACUAGGUCAUCGGGUG [Fam2.2 aminoacylation ribozyme variant]	4.33	5.03	3.36	30	3.28	4.62
AUUGACCGAGGUCAUCGGGUG [Fam2.2 aminoacylation ribozyme variant]	8.11	8.13	4.88	54.8	4.8	11
AUUGACCUAGAUCAUCGGGUG [Fam2.2 aminoacylation ribozyme variant]	3.5	3.51	2.54	18	2.54	3.59
AUUGACCUAGGUCAGCGGGUG [Fam2.2 aminoacylation ribozyme variant]	2.59	3.29	2.61	12.5	2.86	3.01
AUUGACCUAGGUCAUCUGGUG [Fam2.2 aminoacylation ribozyme variant]	1.9	2.27	1.83	8.46	1.7	2.42
AUUGACCUAGGUGAUCGGGUG [Fam2.2 aminoacylation ribozyme variant]	4.22	6.18	4.21	25.9	3.78	5.78
AUUGCCCUAGGUCAUCGGGUG [Fam2.2 aminoacylation ribozyme variant]	8.34	7.92	5.44	62.7	5.7	11.8
AUUGCCCUGGCCAUCGAGUGA [Fam2.1 aminoacylation ribozyme variant]	3.8	4.87	2.48	25.2	2.74	4.96
AUUGCCCUGGUCAGCGAGUGA [Fam2.1 aminoacylation ribozyme variant]	5.91	6.28	3.29	36.7	3.76	5.65
AUUGCCCUGGUCAUCGAGUGG [Fam2.1 aminoacylation ribozyme variant]	30.9	29.8	9.44	197	10.9	29.4
AUUGCCCUGGUCAUCGAGUGU [Fam2.1 aminoacylation ribozyme variant]	64.6	65.7	18.4	448	23.4	62.2
AUUGCCCUGGUCCUCGAGUGA [Fam2.1 aminoacylation ribozyme variant]	3.5	3.66	1.94	23.4	2.05	3.42
AUUGUCCUGGUCAUCGAGUGA [Fam2.1 aminoacylation ribozyme variant]	9.63	11.3	4.78	10	4.76	8.83
AUUUACCGAGGUCAUCGGGUG [Fam2.2 aminoacylation ribozyme variant]	8.5	6.88	4.97	64.7	4.5	11.1
AUUUACCUAGGACAUCGGGUG [Fam2.2 aminoacylation ribozyme variant]	2.48	2.29	2.26	10.9	2.23	3.45
AUUUACCUAGGUCAACGGGUG [Fam2.2 aminoacylation ribozyme variant]	4.05	3.56	2.56	29.2	2.26	4.95
AUUUACCUAGGUCAUCGAGUG [Fam2.2 aminoacylation ribozyme variant]	9.76	5.73	6.62	18.5	5.4	12.7
AUUUACCUAGGUCAUCGGAUG [Fam2.2 aminoacylation ribozyme variant]	0.954	0.671	0.906	0.723	0.974	0.846
AUUUACCUAGGUCAUCGUGUG [Fam2.2 aminoacylation ribozyme variant]	0.995	0.691	0.874	1.75	0.953	1.18
AUUUACCUAGGUCCUCGGGUG [Fam2.2 aminoacylation ribozyme variant]	4.15	4.31	3.33	28.6	3.3	6.13
